# Data taken from US9976167B2, “Group of glycosyltransferases and use thereof” (Shanghai Institutes For Biological Sciences, Chinese …, priority 2012, dated 2018).
# B1: gGT29-4: glycosyltransferase protein with 446 amino acids, SEQ ID NO.: 55 (protein)
# chain: MDNQKGRISIALLPFLAHGHISPFFELAKHLSKRNCNIFLCSTPINLSSIKNRISDKDSSASIKLVELHLPSSPDLPPHYHTTNGLPSHLMVPLRNAFETAAPTFSEILKTLNPDLLIYDFNPSWAPEIASSHNIPAVCFIIGGAASFSMSLHSFKNPGEKYPFLDFDDNSNITPEPPSADNMKLLLDFMTCFERSCDIILIKSFRELEGKYFDFYSTLSDKTLVPVGPLVQDPMGHNEDPKTEQFINWLDKRAESTVVFVCFGSEYFLSNEELEEVAIGLEISMVNFIWAVRLIEGEKKGVLPEGFVQRVGDRGLVVEGWAPQARILGHSSTGGFVSHCGWSSITESMKFGVPVIAMARHLDQPLNGKLAAEVGVGMEVVRDENGKYKREGIAEVIRKVVVEKSGEVMRRKARELSEKMKEKGEEEIDRAVEELVQICKKKKDEQ
# modifications: Panax ginseng; gGT29-4
# B2: gGT29-3: glycosyltransferase protein with 442 amino acids, SEQ ID NO.: 28 (protein)
# chain: MDNQEGRISIALLPFLAHGHISPFFELAKQLAKRNCNVFLCSTPINLSSIKNKDSSASIKLVELHLPSSPDLPPHYHTTNGLPSHLMVPLINAFETAGPTFSEILKTLNPDLLIYDFNPSWAPEIASSHNIPAVYFLTTAAASSSIGLHAFKNPGEKYPFPDFYDNSNNTPEPPSADNMKLLHDFIACFERSCDIILIKSFIELEGKYIDLLSTLSDKTLVPVGPLVQDPMGHNEDPKTEQIINWLDKRAESTVVFVCFGSEYFLSNEELEEVAIGLEISMVNFIWAVRLIEGEKKGVLPEGFVQRVGDRGLVVEGWAPQARILGHSSTGGFVSHCGWSSIAESMKFGVPVIAMARHLDQPLNGKLAAEVGVGMEVVRDENGKYKREGIAEVIRKVVVEKSGEVMRRKARELSEKMKEKGEEEIDRAVEELVQICKKKKDAQ
# modifications: Panax ginseng; gGT29-3
# B3: gGT29: glycosyltransferase protein with 442 amino acids, SEQ ID NO.: 26 (protein)
# chain: MDNQKGRISIALLPFLAHGHISPFFELAKQLAKRNCNVFLCSTPINLSSIKDKDSSASIKLVELHLPSSPDLPPHYHTTNGLPSHLMLPLRNAFETAGPTFSEILKTLNPDLLIYDFNPSWAPEIASSHNIPAVYFLTTAAASSSIGLHAFKNPGEKYPFPDFYDNSNITPEPPSADNMKLLHDFIACFERSCDIILIKSFRELEGKYIDLLSTLSDKTLVPVGPLVQDPMGHNEDPKTEQIINWLDKRAESTVVFVCFGSEYFLSNEELEEVAIGLEISTVNFIWAVRLIEGEKKGILPEGFVQRVGDRGLVVEGWAPQARILGHSSTGGFVSHCGWSSIAESMKFGVPVIAMARHLDQPLNGKLAAEVGVGMEVVRDENGKYKREGIAEVIRKVVVEKSGEVIRRKARELSEKMKEKGEQEIDRALEELVQICKKKKDEQ
# modifications: Panax ginseng; gGT29
# B4: 3GT4: glycosyltransferase protein with 458 amino acids, SEQ ID NO.: 43 (protein)
# chain: MEREMLSKTHIMFIPFPAQGHMSPMMQFAKRLAWKGLRITIVLPAQIRDFMQITNPLINTECISFDFDKDDGMPYSMQAYMGVVKLKVTNKLSDLLEKQRTNGYPVNLLVVDSLYPSRVEMCHQLGVKGAPFFTHSCAVGAIYYNARLGKLKIPPEEGLTSVSLPSIPLLGRDDLPIIRTGTFPDLFEHLGNQFSDLDKADWIFFNTFDKLENEEAKWLSSQWPITSIGPLIPSMYLDKQLPNDKDNGINFYKADVGSCIKWLDAKDPGSVVYASFGSVKHNLGDDYMDEVAWGLLHSKYHFIWVVIESERTKLSSDFLAEAEAEEKGLIVSWCPQLQVLSHKSIGSFMTHCGWNSTVEALSLGVPMVALPQQFDQPANAKYIVDVWQIGVRVPIGEEGVVLRGEVANCIKDVMEGEIGDELRGNALKWKGLAVEAMEKGGSSDKNIDEFISKLVSS
# modifications: Panax ginseng; 3GT4
# B5: gGT29-6: glycosyltransferase protein with 446 amino acids, SEQ ID NO.: 59 (protein)
# chain: MDNQKGRISIVMLPFLAHGHISPFFELAKHLSKRNCNIFLCSTPINLSSIKNRISDKDSSASIKLVELHLPSSPDLPPHYHTTNGLPSHLMVPLRNAFETAAPTFSEILKTLNPDLLIYDFNPSWAPEIASSHNIPAVYFLTTAAASSSIGLHAFKNPGEKYPFPDFYDNSNNTPEPPSADNMKLLHDFIACFERSCDIILIKSFIELEGKYIDLLSTLSDKTLVPVGPLVQDPMGHNEDPKTEQIINWLDKRAESTVVFVCFGSEYFLSNEELEEVAIGLEISMVNFIWAVRLIEGEKKGVLPEGFVQRVGDRGLVVEGWAPQARILGHSSTGGFVSHCGWSSIAESMKFGVPVIAMARHLDQPLNGKLAAEVGVGMEVVRDENGKYKREDIAGVIRKVVVEKSGEVIRRKARELSEKMKEIGEQLIDRAVEELVQICKKKKDEQ
# modifications: Panax ginseng; gGT29-6
# B6: gGT25-5: glycosyltransferase protein with 472 amino acids, SEQ ID NO.: 20 (protein)
# chain: MKSELIFVPVPAFGHLVGMVEMAKLFISRHENLSVTVLISKFFIDTGIDNYNKSLLAKPTPRLTIINLPEIDPQKYLLKPRCAIFPSLIENQKTHVRDVMSRMTQSESTRVVGLLADILFVDIFDIADEFNVPTYVYSPAGAGFLGLAFHLQTLNDDKKQDVTEFRNSDTELLVPSFANPVPAEFLPSIFLEKDGRHDVLLSLYWRCREAKGIIVNTFEELEPYAINSLRMDSMIPPIYPVGPILNLNGEGQNSDEAAVILGWLDDQPPSSVVFLCFGSFGSFPENQVKEIAMGLERSGHRFLWSLRPCISEGETTLQLKYSNLELPAGFLDRTSCVGKVIGWAPQMAILAHEAVGGFVSHCGWNSVLESVWYGMPVATWPMYGEQQLNAFEMVKELGLAVEIEVDYRNEYNKSDFIVKADEIETKIKKLMMDGKNSKIRKKVKEMKEKSRVAMSENGSSYTSLAKLFEEIM
# modifications: Panax ginseng; gGT25-5
# Assays:
# Assay type in all cases: biochemical
# [1] = Glycosyltransfering reaction with crude enzyme, substrate Rh2; settings: crude enzymes of Example 21 (E. coli expression products); 35° C., 12 hrs; TLC
# [2] = Glycosyltransfering activities on ginsengenins and saponins: glycosylation site and specificity (summary)
# Protocol: More than 100 predicted cDNA sequences of glycosyltransferases were extracted from the published expression profile data of the Panax plant. 60 cDNAs with full length were cloned, expressed, and subjected to the analysis of glycosyltransfering reaction.
# (§1) The lysate supernatant of the recombinant yeasts expressing the empty vector was used as control.
# (§2) The reaction was conducted under 35° C. for 12 hrs, then stopped by adding 100 μL of butanol. The product were extracted, dried in vacuum, and dissolved in methanol.
# (§3) The glycosyltransfering reactions of ginsenosides and ginsengenins were catalyzed by using the lysis supernatant of the recombinant yeasts expressing 3GT1, 3GT2, 3GT3 and 3GT4 as crude enzymes. The lysis supernatant of recombinant E. coli expressing empty vectors was used as control. The 100 μL reaction system is shown as Table 3. The reaction was conducted under 35° C. for 12 hrs, then stopped by adding 100 μL of butanol. The product were extracted, dried in vacuum, and dissolved in methanol.
# (§4) The lysate supernatant of the recombinant yeast expressing empty vectors was used as control. The reaction was conducted under 35° C. for 12 hrs, and then stopped by adding 100 μL of butanol. The product were extracted, dried in vacuum, and dissolved in methanol.
# (§5) The glycosyltransfering reactions of ginsenosides Rh2 and F2 were catalyzed by using the lysate supernatant of the recombinant yeasts expressing 3GT1, 3GT2, 3GT3 and 3GT4 as crude enzymes. The 100 μL reaction system is shown as Table 3. The reaction was conducted under 35° C. for 12 hrs, and then stopped by adding 100 μL of butanol. The product were extracted, dried in vacuum, and dissolved in methanol.
# [3] = Glycosyltransfering reaction with crude enzyme, substrate F2; settings: 35° C., 12 hrs, TLC; for extension of C3 glycosyl of F2 by one more glycosyl (product Rd): crude enzymes of Example 21 (E. coli expression products); for extension of C3 of F2 by one more glycosyl (product Rd): crude enzyme: lysate supernatant of recombinant yeast
# Protocol: (§6) According to the method as in Example 4, the cell lysate of recombinant yeasts expressing gGT13 and gGT30 were used to catalyze PPD and PPT.
# as §4, §5
# [4] = Glycosyltransfering reaction with crude enzyme, substrate Rh2; settings: crude enzyme: lysate supernatant of recombinant yeast; 35° C., 12 hrs; TLC
# Protocol: as §1, §2
# The reaction products were first detected by thin layer chromatography (TLC). […]
# as §4, §5
# [5] = Glycosyltransfering reaction with crude enzyme, substrate 25-OH-PPD; settings: 35° C., 12 hrs, TLC
# Protocol: as §3
# [6] = Glycosyltransfering reaction with crude enzyme, substrate CK; settings: 35° C., 12 hrs, TLC
# Protocol: as §6, §3
# [7] = Glycosyltransfering reaction with crude enzyme, substrate PPD; settings: UDP-glucose, 35° C., 12 hrs, TLC
# Protocol: as §1, §2
# (§7) The reaction products were first detected by thin layer chromatography (TLC).
# (§8) The converted products of gGT25 were further identified by HPLC (FIG. 10 and FIG. 11). The retention time of peak 2 was identical to that of the CK standard sample; the retention time of peak 3 was identical to that of PPD. […] Peak 1, also present in the profile of the negative control, indicated its irrelevance to the conversion of PPD. 3 peaks were shown in FIG. 11, the retention time of peak 1 was identical to that of F1 standard sample and peak 3 was identical to that of PPT. […] Peak 2, also present in the profile of the negative control, indicated its irrelevance to the conversion of PPT.
# as §6
# The cell lysis supernatant of the recombinant E. coli was used as crude enzyme to conduct the glycosyltransfering reaction, and the reaction condition was identical to that of Example 4.
# The reaction was conducted under 35° C. for 12 hrs. 100 μL of butanol was added to stop the reaction and the products were extracted. Upon vacuum drying, the product was dissolved by methanol. TLC was first used to detect the reaction product.
# as §3
# The reaction was conducted under 35° C. for 12 hrs, and then stopped by adding 100 μL of butanol. The product were extracted, dried in vacuum, and dissolved in methanol. The reaction products were first detected by thin layer chromatography (TLC) (FIG. 35).
# [8] = Glycosyltransfering reaction with crude enzyme, substrate PPT; settings: crude enzyme: lysate supernatant of recombinant yeast; UDP-glucose, 35° C., 12 hrs; TLC
# Protocol: as §1, §2, §7, §8, §6, §3
# [9] = Glycosyltransfering reaction with crude enzyme, substrate DM; settings: crude enzyme: lysate supernatant of recombinant yeast; UDP-glucose, 35° C., 12 hrs; TLC
# Protocol: as §1, §2, §7, §3
# [10] = Table 2, tetracyclic triterpenoid substrates
# [11] = crude enzyme: lysate supernatant of recombinant E. coli, UDP-glucose
Molecule,extension of C3 glycosyl of Rh2 by one more glycosyl (product Rg3) [1],"glycosylation site: The first glycosyl at C-3 [2, 10]",extension of C3 glycosyl of F2 by one more glycosyl (product Rd) [3],extension of C3 of Rh2 by one more glycosyl (product Rg3) [4],extension of C3 of F2 by one more glycosyl (product Rd) [3],also measured
B1,could not be catalyzed,✓,could be extended by one more glycosyl,–,–,–
B2,–,✓,–,could be extended by one more glycosyl,could be extended by one more glycosyl,–
B3,–,✓,–,could be extended by one more glycosyl,could be extended by one more glycosyl,–
B4,–,–,–,–,–,"glycosylation site: C-3 [2, 10]: ✓; substrate spectrum / specificity ([2]; comparison of 3GT1, 3GT2, 3GT3 and 3GT4, Table 6): best specificity; glycosylation of C3-OH of 25-OH-PPD (product 3-O-β-(D-glucopyranosyl)-25-OH-PPD) ([5]; crude enzyme of Example 11): could be glycosylated; substrate that could be catalyzed: 25-OH-PPD [5, 11]: ✓; glycosylation of C3-OH of CK (product F2) ([6]; crude enzyme of Example 11): further glycosylating its C3-OH; substrate that could be catalyzed: CK [6, 11]: ✓; substrate that could be catalyzed: PPD ([7]; crude enzyme: lysate supernatant of recombinant E. coli): ✓"
B5,could be extended by one more glycosyl,✓,could be extended by one more glycosyl,–,–,–
B6,–,–,–,–,–,"glycosylation site: C6 [2, 10]: ✓; glycosylation of C20-OH of PPD (product CK) ([7]; crude enzyme: lysate supernatant of recombinant yeast): could not glycosylate the C20-OH; glycosylation of C6-OH of PPT (product Rg1 or Rh1) [8]: can only glycosylate C6-OH; glycosylation of C20-OH of PPT (product F1) [8]: could not glycosylate the C20-OH; glycosylation of C20-OH of DM (product 20-O-β-(D-glucopyranosyl)-dammarendiol II) [9]: could not glycosylate the C20-OH"
